Measurements published in patent US8580254B2, “Anti-IGF antibodies” (Boehringer Ingelheim International GmbH, priority 2007, dated 2013).
Blank lines part the entries; values can stand above or below the molecule they belong to.

Assays:
[1] = test system: COLO 205 tumour cells xenografted into nude mice; experiment: In vivo COLO 205 xenograft study; design: species or system athymic NMRI nude mice; settings: 50 mg/kg 5FU alone, once weekly, FIG. 7
Protocol: Female athymic NMRI nude mice, 6-8 weeks old, are inoculated subcutaneously in the right flank with the COLO 205 human colon tumour-derived cell line (ATCC #CCL-222) (5×10^6 in 100 μl Ringer solution). Tumour cell growth is assessed by measuring tumour volume three times per week using calipers and the formula: π/6× larger diameter×(smaller diameter)^2. Treatment is administered intravenously to groups of ten mice and commenced when tumours have developed to a size of between 130 to 270 mm^3. The treatment schedule consists of two times weekly intravenous infusions of vehicle and antibody 40186 at a dose of 25 mg/kg for two treatment cycles. In combinations of antibody with 5FU, a dose of 50 mg/kg 5FU is administered weekly. The study is terminated when tumours reached an average size of 1500 mm^3. All animal experiments are performed according to the legal requirements in Austria as well as guidelines of the American Association for Laboratory Animal Science (AALAS).

[2] = cynomolgus monkeys; cited from earlier work
[3] = humans; cited from earlier work
[4] = molecular target: T1, murine IGF-2 (Mus musculus, UniProt P09535); experiment: ELISA binding titration of IgG1 antibodies; settings: FIG. 1D
T1 construct: insulin-like growth factor-2 (IGF-2; a 67 amino-acid polypeptide); purchased R&D Systems
Protocol: (§1) ELISA screening for IGF-1 positive Fab clones is performed by coating Maxisorb 384-well plates overnight at 4° C. with 5 μg/ml recombinant human IGF-1 (Gropep) in 1× coating buffer (Gibco). Wells are washed with 1×TBS-T and blocked with 1× Blocking Buffer (Gibco) for 1 h at room temperature. Bacterial lysates containing antibody Fab fragments are added for 1.5 hr at room temperature, then washed five times with 1×TBS-T and detected with Alkaline Phosphatase-conjugated Affini Pure Goat Anti-HumanIgG F(ab′)2. Fragment Specific Mab (Dianova) at a dilution of 1:10 000 and visualized with Attophos Substrate (Roche). Fluorescence readings are performed on Tecan fluorescence reader at excitation 430 nm and emission 535 nm.
(§2) Cross-reactivity to recombinant human IGF-1, murine IGF-1, murine IGF-2 (R&D Systems), recombinant human IGF-2, rat IGF-1, rat IGF-2 (Gropep) and recombinant human insulin (Roche) is performed by ELISA using the same procedure as above, but with a 1 μg/ml coating dilution.

[5] = molecular target: T2, human IGF-2 (Homo sapiens, UniProt P01344); experiment: ELISA binding titration of IgG1 antibodies; settings: FIG. 1B
T2 construct: insulin-like growth factor-2 (IGF-2; a 67 amino-acid polypeptide)
Protocol: as §1, §2

[6] = molecular target: T3, human IGF-1 (Homo sapiens, UniProt P05019); experiment: ELISA binding titration of IgG1 antibodies; settings: FIG. 1A
T3 construct: Insulin-like growth factor-1 (IGF-1; a 70 amino-acid polypeptide)
Protocol: as §1, §2

[7] = molecular target: T4, rat IGF-2 (Rattus norvegicus, UniProt P01346); experiment: ELISA binding titration of IgG1 antibodies; settings: FIG. 1F
T4 construct: insulin-like growth factor-2 (IGF-2; a 67 amino-acid polypeptide)
Protocol: as §1, §2

[8] = molecular target: T5, murine IGF-1 (Mus musculus, UniProt P05017); experiment: ELISA binding titration of IgG1 antibodies; settings: FIG. 1C
T5 construct: Insulin-like growth factor-1 (IGF-1; a 70 amino-acid polypeptide); purchased R&D Systems
Protocol: as §1, §2

[9] = molecular target: T6, rat IGF-1 (Rattus norvegicus, UniProt P08025); experiment: ELISA binding titration of IgG1 antibodies; settings: FIG. 1E
T6 construct: Insulin-like growth factor-1 (IGF-1; a 70 amino-acid polypeptide)
Protocol: as §1, §2

[10] = test system: IGF-1 stimulated COLO 205 cell growth; experiment: COLO 205 cell growth assay (CellTiter-Glo); format: cell-based, human; settings: 10 ng/ml IGF-1; antibody 5 and 30 μg/ml; 5 days; FIG. 3A
Protocol: (§3) The COLO 205 colon cancer-derived cell line (ATCC # CCL-222) is plated in 96-well plates at a cell density of 1000 cells per well in serum-free RPMI medium. 10 ng/ml of either IGF-1 or IGF-2 is added in the presence or absence of a control antibody or antibodies 40183 and 40186 at concentrations of 5 and 30 μg/ml. Cells are cultured for 5 days then the cell number in each well determined using the CellTiter-Glo luminescent cell viability assay (Promega). Luminescence was recorded using a XFluor GENios Pro 4.

[11] = test system: IGF-2 stimulated COLO 205 cell growth; experiment: COLO 205 cell growth assay (CellTiter-Glo); format: cell-based, human; settings: 10 ng/ml IGF-2; antibody 5 and 30 μg/ml; 5 days; FIG. 3B
Protocol: as §3

[12] = molecular target: T7, biotinylated-IGF-1 binding to coated insulin-like growth factor-1 receptor (Homo sapiens, UniProt P05019); experiment: ELISA neutralization of biotinylated IGF-1 binding to coated IGF-1R
T7 construct: Insulin-like growth factor-1 (IGF-1; a 70 amino-acid polypeptide); purchased R&D Systems (IGF-1R)
Protocol: To identify IGF antibodies that neutralize the ability of IGF-1 and IGF-2 to bind to the IGF-1R, an ELISA is established by coating plates with 1.5 μg/ml recombinant human IGF-1R (R&D Systems) which allows the binding of biotinylated IGF-1 and biotinylated IGF-2. Bound IGF-1 or IGF-2 is detected using alkaline phosphatase-conjugated streptavidin (1:10,000 dilution) (Roche). The neutralization potency of antibody Fab fragments is measured by adding 0.1-1 μg/ml of Fab to the wells coated with IGF-1R just prior to the addition of biotinylated IGF-1 or IGF-2 ligands. Antibody Fab fragments that block the binding of biotinylated ligand are identified by a reduction in fluorometric signal.

[13] = test system: insulin stimulated COLO 205 cell growth; experiment: COLO 205 cell growth assay (CellTiter-Glo); format: cell-based, human; settings: FIG. 3C

T4 sequence (P01346 25-91 limits assumed): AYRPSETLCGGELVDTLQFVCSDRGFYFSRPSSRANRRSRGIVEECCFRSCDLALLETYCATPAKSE
T6 sequence (P08025 49-118 limits assumed): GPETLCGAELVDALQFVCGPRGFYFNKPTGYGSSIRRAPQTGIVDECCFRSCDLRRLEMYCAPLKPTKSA

Molecule: O=c1[nH]cc(F)c(=O)[nH]1 [5FU, 5-fluorouracil, reference compound]
decrease in median tumour growth [1]: 30%

Molecule: bevacizumab
terminal half-life [2]: 8.57 ± 0.38 days
terminal half life [3]: approximately 20 days

binding to murine IGF-2 (ELISA) [4]: concentration dependent binding
binding to human IGF-2 (ELISA) [5]: concentration dependent binding
binding to human IGF-1 (ELISA) [6]: concentration dependent binding
binding to rat IGF-2 (ELISA) [7]: concentration dependent binding
binding to murine IGF-1 (ELISA) [8]: concentration dependent binding
binding to rat IGF-1 (ELISA) [9]: concentration dependent binding
IC50, inhibition of IGF-1 ligand binding to IGF-1R ([12]; FIG. 2): approximately 5 ng/ml
IC50 ([12]; FIG. 2, read-out: IC50, inhibition of IGF-1 ligand binding to IGF-1R): ~0.03 nM
B1: antibody 40183: fully human IgG1/Igλ anti-IGF antibody; variable heavy SEQ ID NO:18, variable light SEQ ID NO:20; constant regions as 40186 (antibody, listed as Homo sapiens, V domains shown)
VH: QVELVESGGGLVQPGGSLRLSCAASGFTWSSFAMSWVRQAPGKGLEWVSYISYLGSYTGYADSVKGRFTISRDNSKNTLYLQMNSLRAEDTAVYYCARGTKFDYWGQGTLVTVSS
VL: DIVLTQPPSVSGAPGQRVTISCTGSSSNIGTYDVHWYQQLPGTAPKLLIYSNSKRPSGVPDRFSGSKSGTSASLAITGLQSEDEADYYCSITRVFGGGTKLTVLG
modifications: IgG1/lambda constant regions
notes: fully human IgG1/Igλ anti-IGF antibody; constant regions as 40186
effect on IGF-1 induced COLO 205 cell growth [10]: dose dependent inhibition
effect on IGF-2 induced COLO 205 cell growth [11]: dose dependent inhibition
effect on insulin induced COLO 205 cell growth [13]: no effect
